Patent publication CN116003603A

How the values were obtained:
[1] = target: CLDN18.2 (antigen of the ka/kd/KD measurement, species and form not stated); test: affinity measurement, method not described
[2] = target: CLDN18.2 (antigen of the ka/kd/KD measurement, species and form not stated); test: affinity measurement, method not described (Table 2-2)

- Kd [1]: 4.17 nM
- Kd [2]: 4.17 nM
Substance: IMAB362 (antibody)
